Patent publication US20240101677A1

What was measured:
[1] = target: CD16A on human primary NK cells (human) (UniProt P08637); assay: flow cytometry (MFI, PE-anti-human Fc) on human primary NK cells, donor SLB190071
[2] = target: CD16A on human primary NK cells (human) (UniProt P08637); assay: flow cytometry (MFI, PE-anti-human Fc) on human primary NK cells, donor SLB190084
CD16A-158V-G129D (human) = assay: BLI (ForteBio), method of Example 3, mutant antigen
[3] = target: human CD16A (type 158V) on GS-CHO cells (human) (UniProt P08637); assay: flow cytometry (MFI, PE-anti-human Fc) on GS-CHO cells expressing human CD16A (type 158V)
[4] = target: cynomolgus monkey CD16A protein (cynomolgus monkey) (UniProt Q8SPW2); assay: BLI (ForteBio), antibody on Protein A sensor, antigen 100 nM, 1:1 model
[5] = target: human CD16A-158V protein (human) (UniProt P08637); assay: as above
[6] = target: human CD16A-158F protein (human) (UniProt P08637); assay: as above
Sequence of human CD16A-158F protein (human) (P08637 17-208 limits assumed): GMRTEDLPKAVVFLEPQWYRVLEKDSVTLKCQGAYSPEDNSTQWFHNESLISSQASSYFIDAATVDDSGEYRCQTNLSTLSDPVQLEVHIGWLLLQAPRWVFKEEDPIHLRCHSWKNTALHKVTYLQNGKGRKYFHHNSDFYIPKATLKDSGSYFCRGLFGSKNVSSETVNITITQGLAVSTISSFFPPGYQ

Sequence of CD16A on human primary NK cells (human) (P08637 17-254): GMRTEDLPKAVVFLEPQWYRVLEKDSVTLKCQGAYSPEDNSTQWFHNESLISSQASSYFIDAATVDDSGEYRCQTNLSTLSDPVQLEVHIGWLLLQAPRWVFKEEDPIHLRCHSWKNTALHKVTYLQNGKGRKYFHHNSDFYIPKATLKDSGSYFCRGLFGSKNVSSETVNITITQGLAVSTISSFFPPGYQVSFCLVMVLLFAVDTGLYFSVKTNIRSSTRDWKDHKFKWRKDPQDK
Sequence of human CD16A (type 158V) on GS-CHO cells (human) (P08637 17-254 F176V): as the sequence (P08637 17-254) above, with F160V counted along it
Sequence of CD16A-158V-G129D (human) (chain, as listed by the source G129D G129D limits assumed): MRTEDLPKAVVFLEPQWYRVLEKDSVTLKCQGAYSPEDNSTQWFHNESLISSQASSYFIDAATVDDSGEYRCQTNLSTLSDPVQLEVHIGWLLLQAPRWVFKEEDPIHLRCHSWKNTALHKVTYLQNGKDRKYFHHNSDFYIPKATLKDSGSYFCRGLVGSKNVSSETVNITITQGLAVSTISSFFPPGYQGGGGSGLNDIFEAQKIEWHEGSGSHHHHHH
Sequence of cynomolgus monkey CD16A protein (cynomolgus monkey) (Q8SPW2 17-208 limits assumed): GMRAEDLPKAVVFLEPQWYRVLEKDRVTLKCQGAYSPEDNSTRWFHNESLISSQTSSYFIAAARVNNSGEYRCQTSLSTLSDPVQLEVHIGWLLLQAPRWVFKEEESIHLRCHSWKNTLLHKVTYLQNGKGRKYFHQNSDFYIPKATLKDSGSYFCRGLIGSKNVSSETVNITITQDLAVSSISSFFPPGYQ
Sequence of human CD16A-158V protein (human) (P08637 17-208 F176V limits assumed): as the sequence (P08637 17-208 limits assumed) above, with F160V counted along it

EC50 [1]: 2.64 nM | EC50 [2]: 15.6 nM | Kd (CD16A-158V-G129D (human)): 4.63 nM | EC50 [3]: 11.8 nM | Kd [4]: 7.94 nM | Kd [5]: 7.75 nM | Kd [6]: 4.75 nM
B1: 4LS21 antibody (CD16A humanized antibody 4LS21 from Affimed Therapeutics AG, in the form of ScFv-Fc) (Fc fusion, not shown: a dimerising Fc or GST; small tags and cut ends)
VH: QVQLVQSGAEVKKPGESLKVSCKASGYTFTSYYMHWVRQAPGQGLEWMGAIEPMYGSTSYAQKFQGRVTMTRDTSTSTVYMELSSLRSEDTAVYYCARGSAYYYDFADYWGQGTLVTVSS
VL: SYVLTQPSSVSVAPGQTATISCGGHNIGSKNVHWYQQRPGQSPVLVIYQDNKRPSGIPERFSGSNSGNTATLTISGTQAMDEADYYCQVWDNYSVLFGGGTKLTVL
